According to patent US20140030278A1 (QUIAPEG PHARMACEUTICALS, published 2014):

B1: etanercept (ENBREL®), non-PEGylated (Fc fusion)
chain: LPAQVAFTPYAPEPGSTCRLREYYDQTAQMCCSKCSPGQHAKVFCTKTSDTVCDSCEDSTYTQLWNWVPECLSCGSRCSSDQVETQACTREQNRICTCRPGWYCALSKQEGCRLCAPLRKCRPGFGVARPGTETSDVVCKPCAPGTFSNTTSSTDICRPHQICNVVAIPGNASMDAVCTSTSPTRSMAPGAVHLPQPVSTRSQHTQPTPEPSTAPSTSFLLPMGPSPPAEGSTGDEPKSCDKTHTCPPCPAPELLGGPSVFLFPPKPKDTLMISRTPEVTCVVVDVSHEDPQVKFNWYVDGVQVHNAKTKPREQQYNSTYRVVSVLTVLHQNWLDGKEYKCKVSNKALPAPIEKTISKAKGQPREPQVYTLPPSREEMTKNQVSLTCLVKGFYPSDIAVEWESNGQPENNYKTTPPVLDSDGSFFLYSKLTVDKSRWQQGNVFSCSVMHEALHNHYTQKSLSLSPGK
notes: Commercial ENBREL (Wyeth Europa Ltd); also called etanercept (non-PEGylated); non-PEGylated etanercept
B2: PEG20-etanercept (5 eq) (Fc fusion)
chain: B1 chain
modifications: 20 KDa PEG (PEG20) conjugated via NHS-ester PEG reagent at 5 times molar excess; sites not stated
notes: also called PEGylated etanercept
B3: PEG20-etanercept (10 eq) (Fc fusion)
chain: B1 chain
modifications: 20 KDa PEG (PEG20) conjugated via NHS-ester PEG reagent at 10 times molar excess; sites not stated
notes: as for B2

Key:
[1] = biological target: T1, Recombinant human TNF-alpha (human, UniProt P01375 77-233); experiment: pre-incubation with 2.9 ng/ml rhTNF-alpha, ELISA of unbound rhTNF-alpha
T1 construct: Bought reagent; also called rhTNF-alpha; TNF-α
Method: (§1) A fixed concentration of 2.9 ng/ml rhTNF-alpha was used in all incubations. PEGylation was conducted in 5 time molar excess (5 eq) or 10 time molar excess (10 eq) of PEG20 compared etanercept. IC₅₀ is expressed as gram etanercept per ml.
(§2) Recombinant human TNF-alpha (rhTNF-alpha; AbCam PLC, Cambridge, UK; at a fixed concentration of 2.9 ng/ml) was mixed with different concentrations (29000 ng/ml—56.6 pg/ml) of non-PEGylated etanercept, PEG20-etanercept (5 eq) or PEG20-etanercept (10 eq). The pre-incubation mixtures were incubated in a refrigerator at 4-8° C. overnight. The amount of unbound rhTNF-alpha was analysed with a sensitive enzyme-linked immunosorbent assay (ELISA). In brief, 96-well plates (MaxiSorb, Nunc, Roskilde, Denmark) were used for the ELISA. Plates were coated with two anti-TNF-alpha monoclonal antibodies (TNF3/4, Mabtech AB, Nacka Strand, Sweden) diluted in PBS, pH 7.4, to a final concentration of 2 μg/ml. The 96-well plates were incubated in a refrigerator at 4-8° C. overnight. […] The optical density of the resultant yellow color was measured in a spectrophotometer at 450 nm.

[2] = biological target: T1, Recombinant human TNF-alpha; experiment: pre-incubation with 2.9 ng/ml rhTNF-alpha, ELISA of unbound rhTNF-alpha, 4-parameter fit
Method: as §1, §2

T1 sequence (P01375 77-233 limits assumed): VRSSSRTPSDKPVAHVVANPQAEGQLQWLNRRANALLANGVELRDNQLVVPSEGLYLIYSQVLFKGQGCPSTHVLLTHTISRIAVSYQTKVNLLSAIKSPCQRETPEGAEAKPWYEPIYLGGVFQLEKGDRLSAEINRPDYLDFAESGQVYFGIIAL

Binder | binding result [1] | fold IC50 against non-PEGylated etanercept [2]
B1 | binds | 
B2 |  | < 2 fold
B3 |  | < 2 fold
